Measurements from PMC11077089, “Molecular basis of A. thaliana KEOPS complex in biosynthesizing tRNA t6A”.

Key:
Assay in all cases: EMSA; 1:5 RNA:protein; MST: 20 mM PBS pH 7.5, 300 mM NaCl, 0.05% Tween 20, 25 C, 50 nM RNA; EMSA: 20 mM Tris-HCl pH 7.5, 300 mM NaCl, 5 mM b-mercaptoethanol, 20% glycerol, agarose gel in Tris-glycine pH 8.0 (8.5 for FAM-RNA), 4 C
Conditions in all cases: protein: recombinant;recombinant;recombinant;recombinant; tags: ;none (6His on partner CGI121);6His (C-term);6His (C-term); chain copies: 2;2;2;2; label: 5' 6-FAM; tRNA cloverleaf
[1] = target: T1, KAE1 D298R;BUD32;CGI121;PCC1 (Arabidopsis thaliana;Arabidopsis …, UniProt O49653;Q94K14;Q6NMZ4;Q8GWD7 1-353;1-226;1-172;1-96, D298R|||)
T1 sequence 1: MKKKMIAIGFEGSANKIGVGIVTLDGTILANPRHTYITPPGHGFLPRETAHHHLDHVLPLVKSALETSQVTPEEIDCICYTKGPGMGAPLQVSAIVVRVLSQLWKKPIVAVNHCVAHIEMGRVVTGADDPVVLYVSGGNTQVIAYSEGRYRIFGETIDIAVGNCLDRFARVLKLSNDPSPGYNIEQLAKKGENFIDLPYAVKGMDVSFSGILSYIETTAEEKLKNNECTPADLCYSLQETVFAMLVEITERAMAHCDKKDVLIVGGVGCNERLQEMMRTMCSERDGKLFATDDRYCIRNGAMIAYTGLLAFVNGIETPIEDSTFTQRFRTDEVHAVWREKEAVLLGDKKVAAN
T1 sequence 2: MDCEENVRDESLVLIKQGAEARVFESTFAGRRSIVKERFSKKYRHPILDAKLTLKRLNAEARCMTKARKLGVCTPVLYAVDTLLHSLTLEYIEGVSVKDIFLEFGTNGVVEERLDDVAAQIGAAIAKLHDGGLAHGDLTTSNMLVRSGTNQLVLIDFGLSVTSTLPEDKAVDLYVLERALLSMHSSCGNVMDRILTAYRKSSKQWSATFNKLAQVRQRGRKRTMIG
T1 sequence 3: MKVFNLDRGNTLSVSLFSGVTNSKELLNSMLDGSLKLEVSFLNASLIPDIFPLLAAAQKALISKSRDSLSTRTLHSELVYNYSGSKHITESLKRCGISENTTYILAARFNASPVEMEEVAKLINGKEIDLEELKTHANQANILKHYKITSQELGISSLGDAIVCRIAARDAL
T1 sequence 4: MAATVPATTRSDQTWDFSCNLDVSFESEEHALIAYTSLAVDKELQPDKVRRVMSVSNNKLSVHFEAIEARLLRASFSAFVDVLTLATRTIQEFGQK

[2] = target: T2, KAE1 Y305A;BUD32;CGI121;PCC1 (Arabidopsis thaliana;Arabidopsis …, UniProt O49653;Q94K14;Q6NMZ4;Q8GWD7 1-353;1-226;1-172;1-96, Y305A|||)
T2 sequence 1: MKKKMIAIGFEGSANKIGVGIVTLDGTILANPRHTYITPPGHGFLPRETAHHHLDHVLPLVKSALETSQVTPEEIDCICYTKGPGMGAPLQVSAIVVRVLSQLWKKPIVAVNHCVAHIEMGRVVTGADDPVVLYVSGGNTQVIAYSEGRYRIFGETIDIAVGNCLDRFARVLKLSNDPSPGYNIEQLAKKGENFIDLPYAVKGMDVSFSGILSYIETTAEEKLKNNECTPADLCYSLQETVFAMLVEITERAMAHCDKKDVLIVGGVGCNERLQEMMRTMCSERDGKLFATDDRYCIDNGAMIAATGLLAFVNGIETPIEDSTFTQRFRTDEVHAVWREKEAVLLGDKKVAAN
T2 sequence 2: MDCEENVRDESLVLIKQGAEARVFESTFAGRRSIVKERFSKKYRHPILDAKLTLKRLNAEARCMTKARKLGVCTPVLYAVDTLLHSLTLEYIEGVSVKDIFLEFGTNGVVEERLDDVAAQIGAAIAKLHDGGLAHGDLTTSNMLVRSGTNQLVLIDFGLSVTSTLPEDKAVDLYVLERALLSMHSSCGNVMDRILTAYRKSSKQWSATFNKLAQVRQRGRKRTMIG
T2 sequence 3: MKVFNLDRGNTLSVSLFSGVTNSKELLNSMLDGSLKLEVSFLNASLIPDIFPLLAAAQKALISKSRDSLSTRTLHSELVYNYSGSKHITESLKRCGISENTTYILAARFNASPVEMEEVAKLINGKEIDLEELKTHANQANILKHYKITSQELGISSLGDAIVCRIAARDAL
T2 sequence 4: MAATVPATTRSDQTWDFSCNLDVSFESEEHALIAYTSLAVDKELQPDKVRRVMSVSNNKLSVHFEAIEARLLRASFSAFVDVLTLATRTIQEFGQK

[3] = target: T3, KAE1 H117A;BUD32;CGI121;PCC1 (Arabidopsis thaliana;Arabidopsis …, UniProt O49653;Q94K14;Q6NMZ4;Q8GWD7 1-353;1-226;1-172;1-96, H117A|||)
T3 sequence 1: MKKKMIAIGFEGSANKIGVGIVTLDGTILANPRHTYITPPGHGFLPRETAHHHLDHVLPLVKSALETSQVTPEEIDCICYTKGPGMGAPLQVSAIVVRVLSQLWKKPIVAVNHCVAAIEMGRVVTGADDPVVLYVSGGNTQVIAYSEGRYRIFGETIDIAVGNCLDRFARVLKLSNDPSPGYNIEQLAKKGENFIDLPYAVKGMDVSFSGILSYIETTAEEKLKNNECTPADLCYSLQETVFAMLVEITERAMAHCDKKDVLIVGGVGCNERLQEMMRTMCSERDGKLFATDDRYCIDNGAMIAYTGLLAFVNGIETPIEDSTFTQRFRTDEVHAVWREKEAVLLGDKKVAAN
T3 sequence 2: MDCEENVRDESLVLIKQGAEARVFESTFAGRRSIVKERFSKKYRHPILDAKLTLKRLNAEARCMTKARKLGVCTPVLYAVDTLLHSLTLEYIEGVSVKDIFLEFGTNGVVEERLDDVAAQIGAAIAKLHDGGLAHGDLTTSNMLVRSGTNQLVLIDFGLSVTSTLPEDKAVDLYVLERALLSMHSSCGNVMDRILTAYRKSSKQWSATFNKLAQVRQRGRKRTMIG
T3 sequence 3: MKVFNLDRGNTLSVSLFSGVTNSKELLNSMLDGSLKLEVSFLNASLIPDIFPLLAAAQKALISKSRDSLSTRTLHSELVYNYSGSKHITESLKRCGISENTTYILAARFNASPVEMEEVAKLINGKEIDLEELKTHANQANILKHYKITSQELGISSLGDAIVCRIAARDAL
T3 sequence 4: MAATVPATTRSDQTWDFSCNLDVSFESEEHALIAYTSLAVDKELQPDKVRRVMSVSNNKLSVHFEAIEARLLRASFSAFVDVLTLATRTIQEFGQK

Measured: binding result

B1: 5'-6FAM-tRNAArgCCU (structured_RNA)
RNA: GCGCCUGUAGCUCAGUGGAUAGAGCGUCUGUUUCCUAAGCAGAAGGUCGUAGGUUCGACCCCUACCUGGCGCGCCA
binds: all assays above
